T1: B95-8 EBNA1 DBD (Epstein-Barr virus (strain B95-8)) (UniProt P03211)
T1 sequence: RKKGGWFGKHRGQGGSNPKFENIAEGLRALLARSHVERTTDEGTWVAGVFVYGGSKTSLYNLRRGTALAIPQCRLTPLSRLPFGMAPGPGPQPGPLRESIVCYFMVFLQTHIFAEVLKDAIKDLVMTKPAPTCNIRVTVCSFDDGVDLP

B1: FR single EBNA1 dimer site (SPR) (dsDNA)
DNA 1: GGGAAGCATATGCTTCCC
DNA 2: GGGAAGCATATGCTTCCC

Assays:
[1] = target: T1, B95-8 EBNA1 DBD (Epstein-Barr virus (strain B95-8)); assay: SPR; conditions: SPR (Biacore T200, SA chip): 20 mM Tris pH 8.0, 250 mM NaCl, 5 mM beta-mercaptoethanol, 1 mM MgCl2, EBNA1 0-200 nM; temperature not stated. Crystals: 0.2 M …
[2] = target: B95-8 EBNA1 DBD (Epstein-Barr virus (strain B95-8), UniProt P03211 459-607); assay: SPR; 1 mM Mg2+; range given for both proteins, exact value in Fig 2B; SPR (Biacore T200, SA chip): 20 mM Tris pH 8.0, 250 mM NaCl, 5 mM beta-mercaptoethanol, 1 mM MgCl2, EBNA1 0-200 nM; temperature not stated. Crystals: 0.2 M ammonium acetate, 0.15 M Mg acetate, 0.05 M Hepes pH 7.0, 5% PEG 4000; conditions: protein: recombinant; tags: His6-SUMO tag, cleaved; chain copies: 2; label: 5' biotin; self-complementary 18-mer

Row | Molecule | Kd [1] | Kd [2]
1 | CGATAGCATATGCTTCCCGTTGGGTAACATATGCTATTG (double strand) [DS 3+4 (two EBNA1 dimer sites)] | 11.9 nM | 
2 | B1 |  | ~16.5 nM
